The DeepSol protein solubility set

Test: soluble on expression in E. coli; label from the status in PepcDB or PDB records

Row | Sequence | soluble on expression in E. coli
1 | MGSDKIHHHHHHMEKSSIYGLTWTNLTEWLEAHGQKKFRATQVWDWLYRKRVKTFEEMSNVPKETIELLTANFVMNTLEEQVVQESTDGTTKYLFKLSDGNLIETVMMKQEYGLSVCVTTQVGCNIGCTFCASGLLKKSRDLTAGEIVEQIMNVQHYLDGRNLEERVSHVVVMGIGEPFDNYDNVMDFLRVINHDKGLAIGARHITVSTSGLAPRIIDFANEDFQVNLAISLHAPNNELRTSIMRINKTYSIEKLMEAIHYYVNKTNRRITFEYIMLKGVNDHKKEALELAALLGEHRHLAYVNLIPYNPVDEHIDYERSTKEDVLAFYDTLKKNGINCVIRREHGTDIDAACGQLRSKQIKRVGVRERMKQKQAAAEE | not soluble
2 | MGSDKIHHHHHHMKFFNREKEIHKILSIIEGEPNLIYFIYGSINSGKTALINEIINNRLDKNKYIVFYFDLREIFISKYDDFIEVLFEEYEGDKSPIEVIKAIINDLPSLYGIPIPKNTLNEIFKKKTTKNVFRYITNVLMDIKREGKQPIIIIDELQKIGDMKINGFLIYELFNYFVSLTKHKHLCHVFCLSSDSLFIERVYNEAMLEDRVDYILVDDHRGGYAPSIGILPQIESGVAFGNPALEYSNRGFASMRGEYILVDDFDKETALKFMDFLAKENNMSLTNEDKELIYNYVGGKPVLIIKVIDKLRYENLNDILDFMLKDATQKLKYFLEDVKEEDEELYKKVVDALKLFKEDYEIEDIKIPKKIREFLIKRNILFLNPIEGILKPQSFLVWNAIKKVL | not soluble
3 | MSLTDRLRATYRVKATAASIEARAKGIAVEQSVEMPLSAIDDPAVLDGIVGVVEEITERGEDCFEVRLALSTATIGGDAGQLFNMLFGNTSLQDDTVLLDIDLPDDLLASFGGPNIGAAGLRARVGASADRALTCSALKPQGLPPDRLADLARRMALGGLDFIKDDHGMADQAYAPFASRVGAVAAAVDEVNRQTGGQTRYLPSLSGHLDQLRSQVRTGLDHGIDTFLIAPMIVGPSTFHAVVREFPGAAFFAHPTLAGPSRIAPPAHFGKLFRLLGADAVIFPNSGGRFGYSRDTCQAVAEAALGPWGGLHASLPVPAGGMSLARVPEMIATYGPDVIVLIGGNLLEARDRLTEETAAFVASVAGAASRGCGLAEGHHHHHH | soluble
4 | MADLFAGKPLINQEGKELDGGDALRGKKVVALYFSAMWCGSCRQFTPKLKRFYEALKAAGKEIEVVLVSRDREAEDLLEYLGHGGDWVAIPFGDERIQEYLKKYEVPTIPAFKLINNAGELLHDARADVTERGKDDAVALFDEWVEKFPAN | not soluble
5 | MNKKELIDILLYDVALEHSAIIQYLYNVFLIGDPEITNEIESIARQEMRHLKWFAQKVVELGGKVTLNRIEEAIKVGQSWEEMLKNDVDAEEEAIKIYSQQLEIVKDDSVKKLLDRVINDEMRHRDEFSEMLEELKNKKIEEAKQEAGIDSEIFNILNKLLQKEYRLILDYLYHFFHSKTWQEKDTSLDIAIESMFHMGELGEKIGELGGYPDLSLPKAKHFKGFTPEEVIEDIKEEETASRMYEENAKKVTREDLVKLFKWFEKQEDYHAQRLKELFRKMNRFTIGGLGEES | not soluble
6 | GMKRVLLLFDVDGTLTPPRLCQTDEMRALIKRARGAGFCVGTVGGSDFAKQVEQLGRDVLTQFDYVFAENGLLAYRNGLEIHRQSLLNALGNDRIVKFVKKTLRLIADLDIPVQRGTFVEYRNGMINVSPIGRNCSQAERDEFEVYDNEHRVRASLIAELENSFPDFGLKYSIGGQISFDVFPVGWDKTYCLQFVEDDFEEIHFFGDKTQEGGNDYEIYTDKRTIGHKVTSYKDTIAEVEKIIAMK | soluble
7 | MGNWLLPEGLADVLPAEARRIEELRRELLDLYRTYGFELVAPPLVEYIDSLLSSTGSDLNLRTCKLVDQLSGRTLGVRADMTSQVTRIDAHLLNRAGVTRLCYCGSVLHARPADLLSSRELLQIGAEIYGHAGFEADLEIIQLVMDTLATAGVRNARLDLCHSGVMRAIFDADPQASRHAGDLCTLLREKDVPGLAELASRVDGLGEDTVRALQALATLYGGPEIIARARRELPAVPGMAQALDALQALVDAMPGVTLSVDLADVGGYGYHSGVTFAVYGEDWHDALVRGGRYDDVSRAFGRARPATGFSLDLRKLAAGLTPAEPARAVRAPWGQDPALTDAVRRLRRSGEIVVQVLPGHEQGLDEFVCDRELALQDGAWTVRTL | not soluble
8 | MGSDKIHHHHHHMNFIKTISPIQKINFNGFEFYIKRDDLLGEINGNKARKLAFYIHQRYPKNQSFVSYGGSQSNALAALSIFAKQRSYKLVFACEKISTFLKNNPCGNYALALENGVDFVENIHSLSLKQFALSLCKKDDVFIEQGIANLEAQYGYMELAQEIQMQSQSLKLDFDIFLPSGTGTSAAFLAKYSKFKVFTCACVGDIKYLKKQILTLDPSYDFSNLEFLTSDKKYHFAKPYKEFYELYMDLKLKCNIEFDLLYDILGLSIALKQEWKKPLLYIHQGGILGNSTMLERYKFKKSV | not soluble
9 | GTTDAQGFATVEIKQSQGVGLSTPLNIVPVNSYIPNTVNYNVIFTTLTSPDAVGAQMWGHMDETITVDALTFARPRLAAEVFSPDGTLTENNEVWSRVSQANASSTSKGGCGANMLPRRSQLSALYDANNGNGVQTVHGWPTQRQPYWSSSPADQVPHYYTIALNDGARTVGGSTAVYVSCLTTANNP | not soluble
10 | MNAPIEPHRFTLEPFEAHRFANLCGQLDEHLRLIEQRLDIEIRNRGNQFELIGETTQTRSAENLLRRLYRETKGTELTPDMVHLFLQESGVDGLDNHPAAEVGVSLRTKKGMIRPRGLNQQRYVKEVLSNDINFGIGPAGTGKTYLAVACAVDALEREQIRRILLVRPAVEAGEKLGFLPGDLAQKIDPYLRPLYDALYEMLGFEYVAKLIEKQVIEVAPLAYMRGRTLNNSFIILDESQNTTVEQMKMFLTRIGFGSTAVITGDITQVDLPKGTRSGLTHVIDVLKDVPGISFTHFKPKDVVRHPLVQRIVEAYERFDDQLSDGPSGNNGYSRDKNRNA | not soluble
11 | MAHHHHHHMRRVVASRKAICEYRLYSQVSPQGYPVTAVTPQQIRRVPFYRHRKLYDLTTRELSEEAIRDFLPPKPAVPAGWSMEHKIGSCRFDLTKTMGADDSAREDLHVVALMEPKKYEQTYRMDNGERNGEEYLVFNLFIKKHQHSGGVEFGLTSIDMELVMDSLVVHSTDREMDYSIGALGPGKTTSVGTSFGQKLNIECRRCRDYRYRGPMLNELDDDLTDEILDYLDERGVNNGFAEYMMAQAHFLEQEEYLNWLRLLKQFAT | not soluble
12 | MVADLMLCTNFFIFTGGPGSGKTAVLNELNTWGYLTVSEVARSIIQKQQADGGDAIHTGNRKAFRDLMLEQSIADYCKMQSEEKIVFFDRGIPDLYGYSKAFCGEASKEVNEAVGRFRYNKTVFIFPPWPEIYENDDERQQDYQEALQTYYAVKEGYFDCGYVLLEVPKCPIKDRANFIFQMISKNGLEHHHHHH | soluble
13 | MSAMKKLVVLGGGYGGMRILQRLLPNDLPSDWEITLVDRLPYHCLKTEYYALAAGTASDHHLRVSFPEDPRLSTRYGSVSSIDLASKTVLFEEGEPLTYDTLIIGLGCEDKYHGVPGAKEHTYSIQSMEATRRTYEALNNVRPEGVVTIVGAGLSGVELASELRESRPDLTIKLLDRGDIILSMFPRRLSNYVQNWFIDHGVDIINKSNVTKVEEGAVYNHDERIESDAIIWTAGLEHHHHHH | soluble
14 | MKFIRRCMMETRYTVRQAVEMTGVKSYVLRYWEEELELQIHRNELGHRYYTGYDIQLFLNIKELKKRGLQLRAIKNLIPQITASMTGFGESASTLLEGEVIDHAEVKTDRDLKEKISKKDEGKNDKILEFQAILERLITQELKAQNEDEERCRSLDYAIRRQQLARKEAAAAAEKKSGRRRRDK | not soluble
15 | MKKYSILLLPFILASCAPVSESQFTEQRLSELEIKVAKLEERQEKIEEQLEEINKRLDYITKSIAKREIKSYKEPEEEKPPFEEVKSTEDEKAEYENALELYKMKQLNEARDAFVEFIKKYPNSKYTDNAYFWLGKTFYELGNTERAKQIFNVLIKKCKSGELPDCNKLPDTYFMLVKISLDEGNIEEANRYLSILEEKFPDAEATQRAKELIYKTP | not soluble
16 | MGHHHHHHSHMSYKPNLAAHMPAAALNAAGSVHSPSTSMATSSQYRQLLSDYGPPSLGYTQGTGNSQVPQSKYAELLAIIEELGKEIRPTYAGSKSAMERLKRGIIHARGLVRECLAETERNARS | soluble
17 | MGSDKIHHHHHHMRILYYDCFCGISGDMNLAALVDLGVPKKYLIDELLKLNLGSEYEIKIEKGQKLGITGTRVDVILKDEHHNKHELEEVLHNHEHKHNHHEIKNDEPAHSHEHHHRSLRDIEEIINSSTLNDKVKKLSLNIFMKVAEAEAKVHGRELYEVHFHEVGAVDSIVDIVGAAICIDYLKVDKILASRVQVGGGFVRCAHGIMPVPAPATVEILKNIPINTGIVQFETTTPTGAAILAANVKEFTQKLDFIIKKTAYGIGHRDLEIPNVLRVYLGEEESFQDIENQYILETNIDDMNPEIYGYVEEKLFKVGALDVFKTPICMKKGRPGIKLSVLTNEKSEREVLDVIFEETTSIGVRRYKVEKIMLKREFSKVKTEFGDITVKKAYYKGELVKYKPEYEECKDIAREKNVSIHKVYKAVYKQDLK | not soluble
18 | MNLMLCCTPLQVLIARKIIELHPNEQFFGVMFGGVWDKKRTLYASKLAEVCSDSMNIDTGKDLKGFDFLKLMRQLKNKITHKGFDKVFLANLNSLWLQTYLSHVSFKELYTFDDGSDNIFPHPNLLREPGTFKYKLIKAFIGDKYSVNKLFKKIKKHYTVYPNYKNIVSNIEPISLWDNQIDCEIDGEVSFFIGQPLLNTKEENISLIKKLKDQIPFDYYFPHPAEDYRVDGVNYVESELIFEDYVFKHLSNKKLFIRSSVLLHLIYVILMKSVLLERVFQDGNSVTIHFQTLDRFIRKFLEHHHHHH | not soluble
19 | MSYPMTPVKRPTISHGIQASDGIIKRPIEGNKKRLSAPIKDKPEHRIAPEEITNAPTTSRLRRAPEFDVVVIMKTTKKDRKKIIQTPRRRSIKLANVPMTPKTAPIRRHSTGGNAAMSTPKRRKSFGSLAPVRQHRVETRKVVRNLMAVRPPLCF | soluble
20 | GAEDHANHEHDDEMSAAAAHGVESLIYRRDTPFHPVRFNDWLDDWDGAIVRAKGFAWVASRPETVLGVSQAGPSVQAGPIGEWGNDDPSTRLVFIGQEMDGDALIGELDDCLATDKERTETFASDPFPREG | not soluble
21 | MGSDKIHHHHHHMMSMKIFETTAPHPEASLLTAFSKNALDRFAEKRTEECVAEALKVDGTHIFAFSGNRLVLKHDEQVIDPLFSAYELAELQPDFDNAVLLGYRETGEPRIAVPVAVAEDQLASHYKLADARTLYRDHLLDEELLSEVAQAVSLTHWNADNRFCGRCGGTMEQRIGGYKRICASCSHTIFPRTDPVVIMMTIDIERDLCLLGRGAHFASGMYSCLAGFVEPGETIEQAVRRETHEESGVEIGRVRYHASQPWPMPHTLMIGCYAEALSSDIARDEIELEDCRWFTREEVAKMLEAPAGEGFSAPPIGAIAHRLMRDWVEWPE | not soluble
22 | MNPDHKEIIMNHIGLFALTAAALLAGCSSNTQQDNYREASFELCNTEVNIYSVSDDGQVRIVCADGAKFALKTEKTLDIMRDINVDYCDGEGLGKFTESNKYYMFKCKSGTMISVSK | not soluble
23 | SIGLFKVKEKQREQAQNATRGGASVKKQSAGELRLHKDISELNLPSSCSISFPNGKDDLMNFEVSIKPDDGYYHNGTFVSHSKSLLCIHMKLQKLNAKPRFIIPISIWKETFA | soluble
24 | MTVLVVRHGTAGSKAHFSGDDSKRPLDKRGRAQAEALVPQLLAFGATDVYAADRVRCHQTMEPLAAELNVTIHNEPTLTEESYANNPKRGRHRVLQIVEQVGTPVICTQGKVIPDLITWWCERDGVHPDKSRNRKGSTWVLSLSAGRLVTADHLEHHHHHH | not soluble
